Measured values as given in patent US20240327530A1 (ICHNOS SCIENCES, published 2024).

T1: Recombinant cynomolgus monkey IL-1RAP-ECD(S21-E359)-avi-his protein (cynomolgus monkey, UniProt P59822 21-359 (rhesus entry))
T1 construct: also called cyno IL-1RAP-ECD-Avi-His; recombinant cynomolgus monkey IL-1RAP-avi-his protein
T1 sequence: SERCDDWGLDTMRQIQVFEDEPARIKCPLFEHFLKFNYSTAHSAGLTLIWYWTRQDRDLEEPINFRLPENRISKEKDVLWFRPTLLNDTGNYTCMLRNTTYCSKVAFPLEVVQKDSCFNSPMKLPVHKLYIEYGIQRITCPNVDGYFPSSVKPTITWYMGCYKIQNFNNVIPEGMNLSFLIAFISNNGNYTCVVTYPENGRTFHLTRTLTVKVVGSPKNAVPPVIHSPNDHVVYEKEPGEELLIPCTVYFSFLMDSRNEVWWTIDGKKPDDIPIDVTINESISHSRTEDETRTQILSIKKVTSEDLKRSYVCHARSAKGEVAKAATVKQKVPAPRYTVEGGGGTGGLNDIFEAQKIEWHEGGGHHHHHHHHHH

T2: Mouse IL-1RAP, membrane-bound on NIH-3T3 cells (mouse, UniProt Q61730 21-570)
T2 construct: Endogenous protein on cells
T2 sequence (looked up): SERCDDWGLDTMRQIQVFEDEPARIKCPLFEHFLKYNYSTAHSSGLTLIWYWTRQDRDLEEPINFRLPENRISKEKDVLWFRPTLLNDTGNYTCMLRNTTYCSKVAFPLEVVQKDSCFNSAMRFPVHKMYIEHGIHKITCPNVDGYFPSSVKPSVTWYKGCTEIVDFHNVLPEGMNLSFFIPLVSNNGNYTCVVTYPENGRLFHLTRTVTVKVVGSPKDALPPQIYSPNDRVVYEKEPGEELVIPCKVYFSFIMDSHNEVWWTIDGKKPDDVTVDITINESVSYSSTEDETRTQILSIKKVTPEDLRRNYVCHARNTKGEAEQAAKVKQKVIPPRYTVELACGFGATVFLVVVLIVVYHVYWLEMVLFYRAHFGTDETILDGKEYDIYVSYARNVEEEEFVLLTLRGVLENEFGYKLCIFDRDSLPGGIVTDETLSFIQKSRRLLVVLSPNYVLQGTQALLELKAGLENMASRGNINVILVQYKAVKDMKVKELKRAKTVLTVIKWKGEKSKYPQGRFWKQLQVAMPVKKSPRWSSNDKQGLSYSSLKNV


Key:
[1] = target: T1, Recombinant cynomolgus monkey …; assay: SPR, IgG1 LALA captured on anti-human IgG Fc CM5 chip, cynomolgus monkey IL-1RAP-avi-his as analyte in a concentration series, 1:1 fit, one representative replicate
Procedure: Anti-IL-1RAP-C8-RecC-ES IgG1 LALA was immobilized on a Series S CM5 sensor CHIP coupled with anti-human IgG Fc. Human IL-1RAP-avi-his or cynomolgus monkey IL-1RAP-avi-his was injected over immobilized IgG1 LALA in concentration series in HBS-EP+ buffer. One representative replicate for human IL-1RAP and cynomolgus monkey IL-1RAP is presented. Plots are showing data expressed as number of resonance units (abbreviated RU; Y axis) vs. time (s, X axis). Dotted lines represent the measured data while solid lines represent simulated fits. KD: equilibrium dissociation constant; Ka: association constant; Kd: dissociation constant.
Surface plasmon resonance (SPR) was used to measure the binding affinities of the human IgG1 LALA molecules for human and cynomolgus monkey IL-1RAP. Affinities were measured on a BIACORE™ T200 instrument (BIACORE™, GE […]®) at 25° C. and analyzed with the BIACORE™ T200 Evaluation Software (v3.1). Measurements were performed on Series S CM5 sensor chips (BIACORE™ T200, BIACORE™, GE […]®, catalog no. BR100530) coupled with anti-human IgG Fc (BIACORE™, GE […]®, catalog no. BR100839) using a commercial amine coupling kit (BIACORE™, GE […]®, catalog no. BR100050). SPR measurements were performed with recombinant human IL-1RAP-avi-his protein produced in house (SEQ ID NO. 1) or recombinant cynomolgus monkey IL-1RAP-avi-his protein produced in house (SEQ ID NO. 2). The affinities to human and cynomolgus monkey IL-1RAP were assessed by immobilizing anti-IL-1RAP IgG1 LALA molecules and using IL-1RAP proteins as analyte. Around 150 RU of human IgG1 LALA were captured on fc2 of a Series S CM5 sensor chip coupled with anti-human IgG Fc. Recombinant human IL-1RAP-avi-his protein or recombinant cynomolgus monkey IL-1RAP-avi-his protein was injected in multi cycle kinetic at different concentrations ranging from 0.14 to 100 nM, in HBS-EP+ buffer (BIACORE™, GE […]®, catalog no. BR100669) at a flow rate of 30 μl/min for 3 min on fc1 and fc2 (fc1 being used as reference). Dissociation was monitored for 12 min.

[2] = target: T2, Mouse IL-1RAP, membrane-bound on …; assay: flow cytometry on NIH-3T3 cells, PE-Cyanine7 secondary antibody, relative mean fluorescence intensity (isotype subtracted); upper of two curves
Procedure: In brief, cells were harvested, counted, and plated at 50′000 cells/well in a 96-well round-bottom plate. The plate was centrifuged at 350 g for 3 minutes and the cells were resuspended in […] of FACS® buffer (PBS (1×)+2.5% FCS+2 mM EDTA+0.05% NaN₃) containing various concentrations (ranging from 20 to 0.0001 μg/ml) of either anti-mouse IL-1RAP_candidate_1 or Isotype control_2 antibodies. Stained cells were incubated for 30 minutes at 4° C., washed twice with FACS® buffer at 350 g for 3 min and resuspended in 100 μl of a monoclonal anti-mouse IgG PE-Cyanine7 secondary antibody (Biolegend, 407114) diluted 1/200 in FACS® buffer. Cells were then washed twice, and resuspended in 200 μl of FACS® buffer containing SYTOX® Green dead cell stain (THERMO FISHER […]®, S34860) and samples were acquired on a CYTOFLEX® instruments (Beckman Coulter). The cells were gated based on size on FSC vs SSC and analysed for PE-Cyanine7-geometric mean (geomean) fluorescence intensity using FLOWJO® software. Finally, relative geomean fluorescence intensity was calculated by subtracting fluorescence of anti-mouse IL-1RAP_candidate_1 per fluorescence of Isotype control_2. As depicted in FIG. 11, anti-mouse IL-1RAP_candidate_1 antibody recognizes membrane-bound IL-1RAP expressed on NIH-3T3 cell line. […] Each data point is a measurement for a given cell line. […]

[3] = target: T2, Mouse IL-1RAP, membrane-bound on …; assay: cell-based or functional assay

Kd [1] [nM]	koff [1] [s⁻¹]	kon [1] [M⁻¹ s⁻¹]	EC50 (read off the curve) [2] [µg/mL]	hIL-33-stimulated NIH-3T3, mIL-6 release, EC50 of inhibition [3] [nM]	mIL-1b-stimulated NIH-3T3, mIL-6 release, EC50 of inhibition [3] [nM]	mIL-36s-stimulated NIH-3T3, mCXCL-1 release, EC50 of inhibition [3] [nM]	Binder
0.307	0.000196	638000	–	–	–	–	Anti-IL-1RAP-C8-RecC-ES-IgG1LALA (antibody, V domains shown, also called ISB 880-C8-recC-ES) VH: QVQLVQSGAEVKKPGSSVKVSCKASGSPAEPYAIQWVRQAPGQGLEWMGYIIPSLGGYDYAQKFQGRVTITADESTSTAYMELSSLRSEDTAVYYCARGQTLYESGRQFDIWGQGTLVTVSS VL: not shown
–	–	–	~0.01	1.02	3.14	1.68	Anti-IL-1RAP-C3-A3 mmIgG2a LALA (antibody, V domains shown, also called anti-IL-1RAP-C3-A3 mouse IgG2a LALA) VH: EVQLLESGGGLVQPGGSLRLSCAASGFIFSHYGMSWVRQAPGKGLEWVSAISYDGEGTLYADSVKGRFTISRDNSKNTLYLQMNSLRAEDTAVYYCARFRYYTAFDYWGQGTLVTVSS VL: not shown
